In patent US20190374629A1:

Assays:
basigin (human) [1] = biological target: basigin (human) (UniProt P35613); assay: SPR (BIAcore T200), basigin amine-coupled to a CM5 chip; analyte PfRH5ΔNL lyophilised and resuspended before measurement, two-fold dilutions from a top concentration of 8 µM, global 1:1 fit [lower left panel (lyophilised]
basigin (human) [2] = biological target: basigin (human) (UniProt P35613); assay: SPR, BIAcore T200, basigin amine-coupled on CM5 chip, RH5 as analyte 8-0.0625 µM, global 1:1 fit, 20 °C
basigin (human) [3] = biological target: basigin (human) (UniProt P35613); assay: SPR (BIAcore T200), basigin amine-coupled to a CM5 chip; analyte PfRH5ΔNLHS1 lyophilised and resuspended before measurement, two-fold dilutions from a top concentration of 8 µM, global 1:1 fit [lower right panel (lyophilised]

| Substance | Kd (basigin (human) [1]) [nM] | Kd (basigin (human) [2]) [nM] | Kd (basigin (human) [3]) [nM] |
| --- | --- | --- | --- |
| PfRH5ΔNL (from UniProt Q8IFM5 140-526) (ligand) | 310 | 290 | – |
| PfRH5ΔNLHS1 (from UniProt Q8IFM5 140-526) (ligand) | – | 410 | 300 |
